Consider two molecules from patent US20180193496A1 (PHILOGEN S P A, published 2018).

The target of assay [1] is T1, catalytic domain of human MMP3 (amino acids 100-273), recombinant (human, UniProt P08254 100-273, biotinylated (in the ELISA)).
T1 construct: range 100-273; also called HsMMP3; human MMP3 catalytic domain
In words: ELISA on biotinylated catalytic domain, scFv. (ELISA stands for enzyme-linked immunosorbent assay.)

Assay [2] has as its target T2, recombinant peptide consisting of amino acids 262-534 of tenascin-W (human, UniProt Q9UQP3 262-534).
T2 construct: also called recombinant tenascin-W peptide used to isolate the G10 antibody
T2 sequence: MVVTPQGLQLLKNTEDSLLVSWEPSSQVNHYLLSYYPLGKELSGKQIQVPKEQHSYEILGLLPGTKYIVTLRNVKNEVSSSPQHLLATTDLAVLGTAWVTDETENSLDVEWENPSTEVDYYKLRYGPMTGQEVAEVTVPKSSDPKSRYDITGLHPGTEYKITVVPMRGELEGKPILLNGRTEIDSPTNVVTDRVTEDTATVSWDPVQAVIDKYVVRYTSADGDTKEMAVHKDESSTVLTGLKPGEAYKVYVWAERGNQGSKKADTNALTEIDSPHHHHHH
Nature of the assay: Biacore, tenascin-W 262-534 on a CM-5 chip, scFv. The protocol: A monomeric fraction of the purified G10 antibody was analyzed by surface plasmon resonance (BIAcore, 3000 system). A recombinant peptide consisting of amino acids 262-534 of tenascin-W was covalently coupled to the surface of the CM-5 sensor Chip. Twenty-five microliters of each sample were injected at the flow rate of 10 μL/min. The regeneration of the chip was performed with 5 μL of 10 mM glycine-HCl, pH 2.5 (GE Healthcare).
A general note: SPR reads the build-up and loss of mass on a sensor chip optically.

T1 sequence (P08254 100-273 limits assumed): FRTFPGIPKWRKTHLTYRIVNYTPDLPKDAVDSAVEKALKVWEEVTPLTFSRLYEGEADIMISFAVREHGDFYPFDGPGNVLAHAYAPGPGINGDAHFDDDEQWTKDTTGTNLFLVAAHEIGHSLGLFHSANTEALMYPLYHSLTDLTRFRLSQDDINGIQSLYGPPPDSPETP

B1: anti-human MMP3 antibody CH01 in scFv format (scFv, V domains shown)
VH: EVQLLESGGGLVQPGGSLRLSCAASGFTFSPYAMSWVRQAPGKGLEWVSAITGQGGVTYYADSVKGRFTISRDNSKNTLYLQMNSLRAEDTAVYYCAKISSFHFDYWGQGTLVTVSS
VL: EIVLTQSPGTLSLSPGERATLSCRASQSVSSHHLAWYQQKPGQAPRLLIYDASSRATGIPDRFSGSGSGTDFTLTISRLEPEDFAVYYCQQPRGAPTTFGQGTKVEIK
notes: The scFv is myc-tagged (detected with anti-myc 9E10); also called scFv(CH01)
B1: in assay [1], the binding result is “binds”.

B2: antibody G10 in scFv format (scFv, V domains shown)
VH: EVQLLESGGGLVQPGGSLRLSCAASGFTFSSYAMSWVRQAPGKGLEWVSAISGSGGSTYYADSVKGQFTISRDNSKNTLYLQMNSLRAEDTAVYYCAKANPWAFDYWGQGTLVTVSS
VL: SELTQDPAVSVALGQTVRITCQGDSLRSYYASWYQQKPGQAPVLVIYGKNNRPSGIPDRFSGSSSGNTASLTITGAQAEDEADYYCNSSGSQRSPVVFGGGTKLTVL
notes: The monomeric fraction was used in Biacore
In the case of B2, the binding result in assay [2] was “binds”.
